Laboratory results: patent publication US20130273029A1 (Novartis, published 2013)

Tests used:
[1] = target: T1, Human HER3, endogenous, on human cancer cell lines (SK-Br-3, MCF7, BT-474) (human, UniProt P21860 20-1342); test: cell-based or functional assay
[2] = target: T1, Human HER3, endogenous, on human cancer …; test: cell-based or functional assay; remark: listed apart in the source
[3] = target: T1, Human HER3, endogenous, on human cancer …; test: cell-based or functional assay; remark: listed apart in the source
[4] = target: T2, Hu HER3: CD33-[Human HER3, residues 20-640]-TAG (human, UniProt P21860 20-640); test: SET, IgG vs soluble HER3-Tag
T2 construct: also called hu HER3-Tag; HER3-Tag; not shown: C-terminal TAG (e.g., FLAG TAG)
T2 sequence (P21860 20-640): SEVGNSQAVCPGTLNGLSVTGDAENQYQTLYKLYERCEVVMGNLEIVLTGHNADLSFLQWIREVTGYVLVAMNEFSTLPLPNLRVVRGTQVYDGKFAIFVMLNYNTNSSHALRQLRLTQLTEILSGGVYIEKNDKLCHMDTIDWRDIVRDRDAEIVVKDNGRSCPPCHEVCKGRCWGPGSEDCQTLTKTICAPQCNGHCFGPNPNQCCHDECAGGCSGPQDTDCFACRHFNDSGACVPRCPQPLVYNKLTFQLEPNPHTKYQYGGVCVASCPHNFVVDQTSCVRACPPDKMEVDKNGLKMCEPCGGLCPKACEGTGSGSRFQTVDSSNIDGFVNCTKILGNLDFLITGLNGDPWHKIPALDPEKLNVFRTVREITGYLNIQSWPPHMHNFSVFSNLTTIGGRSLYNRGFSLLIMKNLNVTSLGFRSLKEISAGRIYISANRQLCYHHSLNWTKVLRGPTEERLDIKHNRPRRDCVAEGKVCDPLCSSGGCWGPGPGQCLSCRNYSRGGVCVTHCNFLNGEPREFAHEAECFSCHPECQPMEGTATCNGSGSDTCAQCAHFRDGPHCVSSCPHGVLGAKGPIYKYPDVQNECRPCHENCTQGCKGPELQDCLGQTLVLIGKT
Procedure: Affinity determination in solution was essentially performed as previously described (Friguet et al., (1985) J Immunol Methods 77:305-19). In order to improve the sensitivity and accuracy of the SET method, it was transferred from classical ELISA to ECL based technology (Haenel et al., (2005) Anal Biochem 339:182-84).
The data was evaluated with XLfit software (ID Business Solutions) applying customized fitting models.
Antibody affinity was determined by solution equilibrium titration (SET) as described above. The results are summarized in Table 3 and example titration curves for MOR12616 and MOR12925 are contained in FIG. 1.

T1 sequence (P21860 20-1342): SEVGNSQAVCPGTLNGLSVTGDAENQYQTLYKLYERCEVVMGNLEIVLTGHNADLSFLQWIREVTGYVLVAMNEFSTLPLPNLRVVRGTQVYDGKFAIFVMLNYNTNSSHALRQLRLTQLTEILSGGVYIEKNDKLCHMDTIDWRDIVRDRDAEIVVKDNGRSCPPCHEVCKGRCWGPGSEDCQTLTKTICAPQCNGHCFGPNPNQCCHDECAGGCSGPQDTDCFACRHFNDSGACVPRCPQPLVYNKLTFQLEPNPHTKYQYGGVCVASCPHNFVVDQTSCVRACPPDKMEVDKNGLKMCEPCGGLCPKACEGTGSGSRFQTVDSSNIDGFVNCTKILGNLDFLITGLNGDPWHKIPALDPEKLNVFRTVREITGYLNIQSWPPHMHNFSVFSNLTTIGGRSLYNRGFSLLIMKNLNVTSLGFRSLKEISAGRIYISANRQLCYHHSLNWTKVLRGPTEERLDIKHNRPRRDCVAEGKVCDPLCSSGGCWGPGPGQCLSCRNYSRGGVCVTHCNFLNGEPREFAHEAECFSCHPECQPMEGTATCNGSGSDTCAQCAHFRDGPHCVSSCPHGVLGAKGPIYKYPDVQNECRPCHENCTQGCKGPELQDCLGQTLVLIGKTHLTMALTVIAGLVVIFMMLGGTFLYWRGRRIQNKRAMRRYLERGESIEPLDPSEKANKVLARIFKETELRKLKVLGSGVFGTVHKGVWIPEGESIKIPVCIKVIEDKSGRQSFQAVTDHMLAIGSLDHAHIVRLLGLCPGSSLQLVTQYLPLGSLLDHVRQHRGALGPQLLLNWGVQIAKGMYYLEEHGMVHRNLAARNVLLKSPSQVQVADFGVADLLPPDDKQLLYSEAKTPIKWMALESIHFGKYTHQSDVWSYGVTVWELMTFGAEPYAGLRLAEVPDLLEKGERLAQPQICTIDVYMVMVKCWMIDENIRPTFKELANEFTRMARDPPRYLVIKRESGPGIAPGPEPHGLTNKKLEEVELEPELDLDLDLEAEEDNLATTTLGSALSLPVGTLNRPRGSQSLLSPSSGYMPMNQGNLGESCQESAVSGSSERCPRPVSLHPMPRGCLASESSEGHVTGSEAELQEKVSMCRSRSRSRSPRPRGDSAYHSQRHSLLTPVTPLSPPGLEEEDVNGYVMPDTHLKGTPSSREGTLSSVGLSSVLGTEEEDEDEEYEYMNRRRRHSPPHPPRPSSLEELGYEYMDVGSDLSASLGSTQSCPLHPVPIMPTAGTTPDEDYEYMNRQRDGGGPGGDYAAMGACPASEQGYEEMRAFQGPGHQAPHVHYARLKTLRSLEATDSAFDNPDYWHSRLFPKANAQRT

Row | Binder | BT474 pHER3 % inhibition [1] [%] | BT474 pHER3 IC50 [1] [pM] | SK-Br-3 pHER3 % inhibition [1] [%] | SK-Br-3 pHER3 IC50 [1] [pM] | BT-474 pAkt (S473) % inhibition [2] [%] | BT-474 pAkt (S473) IC50 [2] [pM] | SK-Br-3 pAkt (S473) % inhibition [2] [%] | SK-Br-3 pAkt (S473) IC50 [2] [pM] | BT-474 proliferation % inhibition [3] [%] | BT-474 proliferation IC50 [3] [nM] | SK-Br-3 proliferation % inhibition [3] [%] | SK-Br-3 proliferation IC50 [3] [nM] | Kd [4] [nM] | MCF7 pHER3 % inhibition [1] [%] | MCF7 pHER3 IC50 [1] [pM] | MCF7 proliferation % inhibition [3] [%] | MCF7 proliferation IC50 [3] [nM] | MCF7 pAkt (S473) % inhibition [2] [%] | MCF7 pAkt (S473) IC50 [2] [pM]
1 | MOR13752 (antibody, human IgG1, kappa, V domains shown, tested as IgG) VH: QVQLVQSGAEVKKPGESLKISCKGSGYSFTNYWVAWVRQMPGKGLEWMGIIYPGGSDTIYSPSFQGQVTISADKSISTAYLQWSSLKASDTAMYYCARVHIIQPPSAWSYNAMDVWGQGTLVTVSS VL: DIQMTQSPSSLSASVGDRVTITCRASQSISTYLNWYQQKPGKAPKLLIFGASNLQSGVPSRFSGSGSGTDFTLTISSLQPEDFATYYCQQSITELFTFGQGTKVEIKR | 45 | 4240 | 71 | 1000 | 76 | 39100 | 86 | 734 | 22 | 42.8 | 40 | 3 | 0.096 |  |  |  |  |  | 
2 | MOR12923 (antibody, human IgG1, kappa, V domains shown) VH: QVQLVQSGAEVKKPGESLKISCKGSGYSFTNSWVAWVRQMPGKGLEWMGIIYPGNSDTIYSPSFQGQVTISADKSISTAYLQWSSLKASDTAMYYCARVHIIQPPSAWSYNAMDVWGQGTLVTVSS VL: DIQMTQSPSSLSASVGDRVTITCRASQSISTYLNWYQQKPGKAPKLLIFGASNLQSGVPSRFSGSGSGTDFTLTISSLQPEDFATYYCQQSMYLPFTFGQGTKVEIKR | 61 | 1050 | 74 | 70 |  |  |  |  |  |  | 42 | 0.062 |  | 83 | 540 | 29 | 0.266 |  | 
3 | MOR12924 (antibody, human IgG1, kappa, V domains shown) VH: QVQLVQSGAEVKKPGESLKISCKGSGYSFTNSWVAWVRQMPGKGLEWMGIIYPGNSDTIYSPSFQGQVTISADKSISTAYLQWSSLKASDTAMYYCARVHIIQPPSAWSYNAMDVWGQGTLVTVSS VL: DIQMTQSPSSLSASVGDRVTITCRASQSISTYLNWYQQKPGKAPKLLIFGASNLQSGVPSRFSGSGSGTDFTLTISSLQPEDFATYYCQQSVWEPATFGQGTKVEIKR | 62 | 1590 | 76 | 123 |  |  |  |  |  |  | 44 | 0.533 |  | 80 | 631 | 23 | 0.497 |  | 
4 | MOR13754 (antibody, human IgG1, kappa, V domains shown, tested as IgG) VH: QVQLVQSGAEVKKPGESLKISCKGSGYSFTSYWVAWVRQMPGKGLEWMGIIYPGGSDTIYSPSFQGQVTISADKSISTAYLQWSSLKASDTAMYYCARVHIIQPPSAWSYNAMDVWGQGTLVTVSS VL: DIQMTQSPSSLSASVGDRVTITCRASQSISTYLNWYQQKPGKAPKLLIFGASNLQSGVPSRFSGSGSGTDFTLTISSLQPEDFATYYCQQSITELFTFGQGTKVEIKR | 49 | 3900 | 63 | 606 | 64 |  | 84 | 465 | 17 | 8.01 | 40 | 6.47 | 0.29 |  |  |  |  |  | 
5 | MOR13750 (antibody, human IgG1, kappa, V domains shown, tested as IgG) VH: QVQLVQSGAEVKKPGESLKISCKGSGYSFTSSWVAWVRQMPGKGLEWMGIIYPGGSDTIYSPSFQGQVTISADKSISTAYLQWSSLKASDTAMYYCARVHIIQPPSAWSYNAMDVWGQGTLVTVSS VL: DIQMTQSPSSLSASVGDRVTITCRASQSISTYLNWYQQKPGKAPKLLIFGASNLQSGVPSRFSGSGSGTDFTLTISSLQPEDFATYYCQQSITELFTFGQGTKVEIKR | 44 | 6680 | 60 | 1440 | 60 | 17800 | 83 | 1640 | 21 | 13.8 | 34 | 5.47 | 0.16 |  |  |  |  |  | 
6 | MOR13756 (antibody, human IgG1, kappa, V domains shown, tested as IgG) VH: QVQLVQSGAEVKKPGESLKISCKGSGYSFTLTWVAWVRQMPGKGLEWMGIIYPGQSDTIYSPSFQGQVTISADKSISTAYLQWSSLKASDTAMYYCARVHIIQPPSAWSYNAMDVWGQGTLVTVSS VL: DIQMTQSPSSLSASVGDRVTITCRASQSISTYLNWYQQKPGKAPKLLIFGASNLQSGVPSRFSGSGSGTDFTLTISSLQPEDFATYYCQQSITELFTFGQGTKVEIKR | 66 | 322 | 78 | 95 | 86 | 189 | 90 | 107 | 42 | 0.71 | 50 | 0.097 | 0.025 |  |  |  |  |  | 
7 | MOR13758 (antibody, human IgG1, kappa, V domains shown, tested as IgG) VH: QVQLVQSGAEVKKPGESLKISCKGSGYSFTLYWVAWVRQMPGKGLEWMGIIYPGQSDTIYSPSFQGQVTISADKSISTAYLQWSSLKASDTAMYYCARVHIIQPPSAWSYNAMDVWGQGTLVTVSS VL: DIQMTQSPSSLSASVGDRVTITCRASQSISTYLNWYQQKPGKAPKLLIFGASNLQSGVPSRFSGSGSGTDFTLTISSLQPEDFATYYCQQSITELFTFGQGTKVEIKR | 67 | 382 | 77 | 91 | 78 | 371 | 90 | 110 | 38 | 0.516 | 47 | 0.133 | 0.021 |  |  |  |  |  | 
8 | MOR13755 (antibody, human IgG1, kappa, V domains shown, tested as IgG) VH: QVQLVQSGAEVKKPGESLKISCKGSGYSFTTYWVAWVRQMPGKGLEWMGIIYPGQSDTIYSPSFQGQVTISADKSISTAYLQWSSLKASDTAMYYCARVHIIQPPSAWSYNAMDVWGQGTLVTVSS VL: DIQMTQSPSSLSASVGDRVTITCRASQSISTYLNWYQQKPGKAPKLLIFGASNLQSGVPSRFSGSGSGTDFTLTISSLQPEDFATYYCQQSITELFTFGQGTKVEIKR | 73 | 657 | 80 | 217 | 79 | 645 | 91 | 131 | 41 | 0.738 | 52 | 0.207 | 0.024 | 79 | 331 |  |  | 79 | 468
